The values that follow come from patent US20230242902A1, “A HIGHLY ERROR-PRONE […] R[…] FOR TARGETED CONTINUOUS EVOLUTION IN VIVO” (The Regents of the University of California, priority 2017, published 2023).

In this assay the test system is p1. Description: p1 copy number by p1-encoded mKate2 fluorescence. The assay is classed as cell-based, S. cerevisiae. To be noted: OR-Y24, measured in triplicate. The method, boiled down: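 Copy number was inferred from p1-encoded mKate2 fluorescence in saturated OR-Y24 cultures (triplicate), calibrated linearly against qPCR of p1 leu2 relative to genomic LEU3.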

Numbering of substitutions follows the chain as printed. Numbers in names are those of the source.

B1: I708A: TP-DNAP1 variant (protein)
chain: MDYKDKALNDLRNVYADFDSLPLDFRQILIKDRATLLQKEDVEKKILERQEDAKKYAEYLKQSEIPERISLPNIKRHKGVSISFEETSEDMVLEPRPFIFDGLNIRCFRRETIFSLKNKILNMVKESSSFKNVSRQSVSFMYFKIFNKGKVIASTKSVNIYEDKIDERLEDLCNNFDDVLKKIIDVTYGYESLFVSETYSYVIFYAKSIYFPQPRCVNNWGNNIPNILTFDSFKLFTANKNNVSCIKQCSRFLWQKDFNTLEEMIEYKNGNICIVTPQLHINDVRDIKSFNDIRLYSESPIKTFSVIDNTITYLFYFKEHLGVIFNITKSRHDRRVTKFSPLSKFSDVKNITVCFDIESYFDPEKESNQVNIPFICCASIIYNKVIGNIVDFEGRDCVAQMIEYVVDICGELNISSVELIAHNGGGYDFHYILSSMYNPAAIKNILIRNNSFISFNFAHDGVKFSVKDSYSFLLCSLANASKAFLNEETFKKTDFPHHDLKTADDLYKVYKEWSSVNTEINHVVEKEKLLITSEHIVNFTKNDKSKTLIEWSKDYCRNDVLVLSKVWLEFKNAVEDIFNCELVDQTMTLAGLSYKLFQANMPFDVELRHPNKEDYFNMREALIGGRCISVNGIYKDVLCLDVKSLYPASMAFYDQPYGSFKRVSSRPKDELGIYYVRVTPNRNNKSNFFPIRSHNKITYNNFEESTYAAWYTNVDIDIGLSEGHNIEYIPFDSYGNIGYSWSKKGKIFEKYIKDVLYKLKIKYEKQNNKVKRNVIKIIMNSLWGKFAQKWVNFEYFIKSEDDIDFESEEAYKIWDTDFMLIKKIKESTYSSKPIQNGVFTLSWARYHMKSIWDAGAKEGAECIYSDTDSIFVHKEHFKKNAKFMLNGLKVPIIGSEVGQLELECEFDKLLCAGKKQYMGFYTYFQDGKPCIKEKKRFKGIPSNYIIPELYAHLLSGADKEAKIQFLKFRREWGSVKGYIENKTVKAT
Consider B1, for which the “Mean fold-increase over w.t. (p1 copy number)” value (“Mean fold-increase” for short) is given as 2.55 fold.

B2: I708T: TP-DNAP1 variant (protein)
chain: B1 chain with A708T
In the case of B2, the “Mean fold-increase” value is 2.41 fold.

B3: I708L: TP-DNAP1 variant (protein)
chain: B1 chain with A708L
For the molecule B3, the “Mean fold-increase” value is listed as 2.16 fold.

B4: I729W: TP-DNAP1 variant (protein)
chain: B1 chain with A708I, I729W
In the case of B4, the “Mean fold-increase” value is recorded as 1.97 fold.

B5: E298I: TP-DNAP1 variant (protein)
chain: B1 chain with E298I, A708I
For the molecule B5, the “Mean fold-increase” value stood at 2.34 fold.

B6: I708V: TP-DNAP1 variant (protein)
chain: B1 chain with A708V
With B6, the “Mean fold-increase” value came out at 2.01 fold.

B7: I729F: TP-DNAP1 variant (protein)
chain: B1 chain with A708I, I729F
On to B7, for which the “Mean fold-increase” value is recorded as 1.7 fold.

B8: I708M: TP-DNAP1 variant (protein)
chain: B1 chain with A708M
In the case of B8, the “Mean fold-increase” value stood at 2.32 fold.

B9: A709N: TP-DNAP1 variant (protein)
chain: B1 chain with A708I, A709N
In the case of B9, the “Mean fold-increase” value was determined as 2.01 fold.

B10: I729V: TP-DNAP1 variant (protein)
chain: B1 chain with A708I, I729V
On to B10, for which the “Mean fold-increase” value is on record as 1.87 fold.

B11: I708E: TP-DNAP1 variant (protein)
chain: B1 chain with A708E
Turning to B11, the “Mean fold-increase” value worked out at 2.41 fold.
